pKd: −log10 of the molar value.
Molecular target: CD3D-CD3E-mFc (human; mouse)
Assay: SPR, Biacore T200, method of Section 3.1; affinity for CD3D-CD3E-mFc

pKd: 8.97
koff: 0.00028 s⁻¹
kon: 258000 M⁻¹ s⁻¹
Substance: TCR/CD3 bispecific molecule IMC-C103C (control bifunctional molecule)

Source: patent EP4772538A1
